Measured values reported in paper PMC12862363, “AURKB-driven dissolution of CIZ1–RNA assemblies from the inactive X chromosome in mitosis” (Nucleic Acids Research, 2026).

Tests used:
C179DDD (Homo sapiens) = experiment: EMSA; conditions: 0.66 nM RNA; yeast tRNA 0.1 mg/ml; 10 mM Tris-HCl pH 7, 30 mM NaCl, 2.5 mM MgCl2, 0.1% IGEPAL CA-630, 0.1 mg/ml yeast tRNA, 1.5% RNaseOUT, 0.2 mM EDTA, 0.2 mM DTT, 30 C 20 min; 0.8% agarose/TBE …
C179Δtail (Homo sapiens) = experiment: EMSA; conditions: 0.66 nM RNA; yeast tRNA 0.1 mg/ml; 10 mM Tris-HCl pH 7, 30 mM NaCl, 2.5 mM MgCl2, 0.1% IGEPAL CA-630, 0.1 mg/ml yeast tRNA, 1.5% RNaseOUT, 0.2 mM EDTA, 0.2 mM DTT, 30 C 20 min; 0.8% agarose/TBE …

Question: How did the binding signal (% probe shifted at 5 µM protein) (C179DDD (Homo sapiens)) turn out when Xist repeat E RNA probe was run?
Answer: 54

Question: And the binding signal (% probe shifted at 5 µM protein) (C179Δtail (Homo sapiens))?
Answer: 2
